The results in this text go back to paper PMC3459862.

The assay addresses GST-WC-1 mini, LXXLL motif mutant (LAQLL changed to LAQAA) (Neurospora crassa) (UniProt Q01371). The assay is described as follows: pull-down.
Sequence of UniProt Q01371 (Q01371 838-1000, change not shown): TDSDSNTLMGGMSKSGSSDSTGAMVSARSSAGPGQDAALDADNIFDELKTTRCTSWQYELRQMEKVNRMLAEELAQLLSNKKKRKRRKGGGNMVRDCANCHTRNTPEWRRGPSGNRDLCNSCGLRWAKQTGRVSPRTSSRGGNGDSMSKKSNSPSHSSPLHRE

In turn, “S. cerevisiae Gcn5p, 35S-radiolabeled (from UniProt Q03330 1-439) (enzyme)” returned a percent decrease of retained Gcn5p against WC-1 mini of 45%.
